Molecular target: IgG agarose beads (Sigma)
Experiment: pull-down with IgG agarose beads; recovered HS^act conversion activity

HS^act conversion activity extracted: 7000 units
recovery of initial HS^act conversion activity: 10%
Substance: Protein A tagged mouse r3-OST-1 (from UniProt O35310 27-311)

Reference: patent US6861254
